Measured values published in patent US20190256864A1 (INDIANA UNIVERSITY RESEARCH AND TECHNOLOGY, published 2019).
Where a chain is given by its changes, count along the chain named.

Key:
[1] = system: T1, Wheat streak mosaic virus (WSMV) PBS1 decoy protein
T1 sequence: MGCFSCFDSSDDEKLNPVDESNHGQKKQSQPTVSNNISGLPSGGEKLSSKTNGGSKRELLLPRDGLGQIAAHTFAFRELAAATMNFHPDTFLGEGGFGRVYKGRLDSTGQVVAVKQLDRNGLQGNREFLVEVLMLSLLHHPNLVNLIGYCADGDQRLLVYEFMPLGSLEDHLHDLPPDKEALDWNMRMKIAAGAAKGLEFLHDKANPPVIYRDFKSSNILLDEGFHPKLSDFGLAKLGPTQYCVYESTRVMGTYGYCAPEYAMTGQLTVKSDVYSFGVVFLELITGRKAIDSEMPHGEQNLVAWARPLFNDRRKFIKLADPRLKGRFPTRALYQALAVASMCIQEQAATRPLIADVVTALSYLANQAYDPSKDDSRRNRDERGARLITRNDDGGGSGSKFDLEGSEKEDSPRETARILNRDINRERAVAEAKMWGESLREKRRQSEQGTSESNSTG

[2] = system: T2, GmPBS1SCS derivative of GmPBS1a
T2 sequence: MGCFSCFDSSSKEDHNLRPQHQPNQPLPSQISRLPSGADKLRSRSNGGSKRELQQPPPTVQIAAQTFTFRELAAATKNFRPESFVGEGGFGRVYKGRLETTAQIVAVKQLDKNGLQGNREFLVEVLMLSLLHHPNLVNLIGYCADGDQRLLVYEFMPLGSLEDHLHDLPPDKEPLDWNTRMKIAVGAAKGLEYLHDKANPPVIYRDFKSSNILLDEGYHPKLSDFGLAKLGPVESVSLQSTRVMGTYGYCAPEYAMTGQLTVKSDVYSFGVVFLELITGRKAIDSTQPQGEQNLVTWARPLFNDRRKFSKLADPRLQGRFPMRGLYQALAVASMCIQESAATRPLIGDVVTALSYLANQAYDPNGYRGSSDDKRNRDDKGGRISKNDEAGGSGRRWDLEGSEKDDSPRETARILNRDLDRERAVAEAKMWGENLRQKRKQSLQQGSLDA

[3] = system: T3, Soybean mosaic virus (SMV) PBS1 decoy protein
T3 sequence: T1 sequence with Q241E, Y242S, C243V, V244L, Y245S, E246Q

[4] = system: T4, GmPBS1SCS derivative of GmPBS1b
T4 sequence: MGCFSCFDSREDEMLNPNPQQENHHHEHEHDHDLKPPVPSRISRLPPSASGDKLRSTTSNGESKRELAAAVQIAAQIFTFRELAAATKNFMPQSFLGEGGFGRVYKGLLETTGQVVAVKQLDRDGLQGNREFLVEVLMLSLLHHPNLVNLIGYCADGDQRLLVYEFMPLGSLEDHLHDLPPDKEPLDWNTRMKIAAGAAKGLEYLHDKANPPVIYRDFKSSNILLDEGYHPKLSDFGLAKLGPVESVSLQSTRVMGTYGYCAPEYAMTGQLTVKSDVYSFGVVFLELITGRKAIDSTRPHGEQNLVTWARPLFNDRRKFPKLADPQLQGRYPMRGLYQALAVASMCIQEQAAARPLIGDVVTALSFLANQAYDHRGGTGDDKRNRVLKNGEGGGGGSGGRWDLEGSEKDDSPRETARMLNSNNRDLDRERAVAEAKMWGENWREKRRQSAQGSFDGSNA

[5] = system: T5, GmPBS1SCS derivative of GmPBS1c
T5 sequence: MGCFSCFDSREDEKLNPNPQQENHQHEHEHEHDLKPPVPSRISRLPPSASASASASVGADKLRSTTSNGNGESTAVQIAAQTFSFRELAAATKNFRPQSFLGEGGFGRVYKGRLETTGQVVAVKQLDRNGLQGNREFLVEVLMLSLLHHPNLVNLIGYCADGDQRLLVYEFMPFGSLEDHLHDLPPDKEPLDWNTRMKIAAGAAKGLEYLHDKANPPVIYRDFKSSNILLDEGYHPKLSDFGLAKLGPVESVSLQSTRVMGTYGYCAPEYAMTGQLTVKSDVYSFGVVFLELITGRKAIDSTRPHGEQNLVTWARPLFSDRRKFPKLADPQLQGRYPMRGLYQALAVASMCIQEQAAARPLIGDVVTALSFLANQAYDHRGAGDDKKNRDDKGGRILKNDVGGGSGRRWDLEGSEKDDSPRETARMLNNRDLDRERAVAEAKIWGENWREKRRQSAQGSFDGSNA

Soybean mosaic virus (SMV) NIa protease
cleavage of the substrate (immunoblot after transient co-expression in N. benthamiana); not cleaved by the non-matching protease [1]: demonstrating cleavage of the decoy PBS1 proteins only by the matching proteases | cleavage of the substrate (transient coexpression in N. benthamiana) [2]: Transient coexpression of the modified GmPBS1 constructs along with the SMV NIa protease in N. benthamiana resulted in NIa-mediated cleavage of GmPBS1SCS | cleavage of the substrate (immunoblot after transient co-expression in N. benthamiana) [3]: demonstrating cleavage of the decoy PBS1 proteins only by the matching proteases | cleavage of the substrate (transient coexpression in N. benthamiana) [4]: Transient coexpression of the modified GmPBS1 constructs along with the SMV NIa protease in N. benthamiana resulted in NIa-mediated cleavage of GmPBS1SCS | cleavage of the substrate (transient coexpression in N. benthamiana) [5]: Transient coexpression of the modified GmPBS1 constructs along with the SMV NIa protease in N. benthamiana resulted in NIa-mediated cleavage of GmPBS1SCS
